The record followed here is paper PMC10016340.

For orientation: Kd means the concentration at which binding is half-saturated. A high value points to lower affinity.

The target of assay [1] is Cofilin-1 (human) (UniProt P23528). The experiment in a line: SPR. On the technique in general: Surface plasmon resonance follows binding to a sensor surface in real time, without labels.
For assay [2], the target named is Ubiquitin carboxyl-terminal hydrolase isozyme L1 (UCH-L1) (human) (UniProt P09936). The assay can be described thus: SPR.
Chain of Ubiquitin carboxyl-terminal hydrolase isozyme L1 (UCH-L1) (human) (P09936 whole entry): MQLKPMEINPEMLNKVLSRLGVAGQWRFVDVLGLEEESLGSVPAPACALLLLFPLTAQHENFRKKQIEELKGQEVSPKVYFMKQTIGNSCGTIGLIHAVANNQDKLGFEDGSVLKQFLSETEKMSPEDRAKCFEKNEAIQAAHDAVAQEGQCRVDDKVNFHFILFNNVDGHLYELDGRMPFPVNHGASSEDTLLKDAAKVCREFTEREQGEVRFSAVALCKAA

Chain of Cofilin-1 (human) (P23528 whole entry): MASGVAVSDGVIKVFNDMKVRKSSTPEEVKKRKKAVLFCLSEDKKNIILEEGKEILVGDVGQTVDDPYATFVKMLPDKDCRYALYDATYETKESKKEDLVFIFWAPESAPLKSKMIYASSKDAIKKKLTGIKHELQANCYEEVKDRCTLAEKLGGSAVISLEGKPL

Turning to “α-synuclein oligomers (αSOs) (from UniProt P37840 1-140) (complex)”, the Kd in assay [1] worked out at 290 nM; in assay [2], 600 nM.
